{
  "source": "patent US20240294581",
  "system": "T1, Leupeptin A (N-Acetyl-L-leucyl-L-leucyl-L-argininal)",
  "T1 sequence": "LLR",
  "data": [
    {"substance": "Plu4509 (hypothetical protein / candidate protease from P. luminescens TTO1), purified as a His6x-tagged variant", "values": [
      {"measurement": "production of metabolites 10 and 11 (in vitro enzyme assay, end point analysis; 1 h, 35 C; LC-MS)", "value": "addition of enzyme indeed significantly enhanced production of 10 and 11"},
      {"measurement": "production of metabolites 10 and 11 in E. coli expressing plu4509, fed leupeptin A, versus vector control", "value": "E. coli control cultures were capable of generating both metabolites 10 and 11 with plu4509 providing an enhancement in production over controls"}
    ]}
  ]
}
